Measurements taken from publication PMC9464890, “Exosite binding modulates the specificity of the immunomodulatory enzyme ScpA, a C5a inactivating bacterial protease” (Computational and Structural Biotechnology Journal, 2022).

Experiments:
ScpA_(S512A,D783A) = molecular target: T1, ScpA_(S512A,D783A) (Streptococcus pyogenes, UniProt P15926 31-1032, S512A | D783A); experiment: SPR; BIAcore X100, NTA sensor chip with about 20-25 RU of immobilised His-tagged C5a form (ligand), ScpA form flowed as ligate at 30 uL/min, 25 °C, 10 mM Hepes-KOH pH 7.4, 150 mM NaCl, 0.005% Tween 20, 50 uM EDTA; global fit, 1:1 Langmuir model with drifting baseline; triplicate; details: both partners purified
T1 construct: Made by QuikChange II from pGEX ScpA(31-1032); The active form D783A (S512 intact) was used for activity assays and for the crystal structure 7YZX; also called D783A_(S512A); source: details in Supplemental Information SI1 and SI2
T1 sequence (looked up): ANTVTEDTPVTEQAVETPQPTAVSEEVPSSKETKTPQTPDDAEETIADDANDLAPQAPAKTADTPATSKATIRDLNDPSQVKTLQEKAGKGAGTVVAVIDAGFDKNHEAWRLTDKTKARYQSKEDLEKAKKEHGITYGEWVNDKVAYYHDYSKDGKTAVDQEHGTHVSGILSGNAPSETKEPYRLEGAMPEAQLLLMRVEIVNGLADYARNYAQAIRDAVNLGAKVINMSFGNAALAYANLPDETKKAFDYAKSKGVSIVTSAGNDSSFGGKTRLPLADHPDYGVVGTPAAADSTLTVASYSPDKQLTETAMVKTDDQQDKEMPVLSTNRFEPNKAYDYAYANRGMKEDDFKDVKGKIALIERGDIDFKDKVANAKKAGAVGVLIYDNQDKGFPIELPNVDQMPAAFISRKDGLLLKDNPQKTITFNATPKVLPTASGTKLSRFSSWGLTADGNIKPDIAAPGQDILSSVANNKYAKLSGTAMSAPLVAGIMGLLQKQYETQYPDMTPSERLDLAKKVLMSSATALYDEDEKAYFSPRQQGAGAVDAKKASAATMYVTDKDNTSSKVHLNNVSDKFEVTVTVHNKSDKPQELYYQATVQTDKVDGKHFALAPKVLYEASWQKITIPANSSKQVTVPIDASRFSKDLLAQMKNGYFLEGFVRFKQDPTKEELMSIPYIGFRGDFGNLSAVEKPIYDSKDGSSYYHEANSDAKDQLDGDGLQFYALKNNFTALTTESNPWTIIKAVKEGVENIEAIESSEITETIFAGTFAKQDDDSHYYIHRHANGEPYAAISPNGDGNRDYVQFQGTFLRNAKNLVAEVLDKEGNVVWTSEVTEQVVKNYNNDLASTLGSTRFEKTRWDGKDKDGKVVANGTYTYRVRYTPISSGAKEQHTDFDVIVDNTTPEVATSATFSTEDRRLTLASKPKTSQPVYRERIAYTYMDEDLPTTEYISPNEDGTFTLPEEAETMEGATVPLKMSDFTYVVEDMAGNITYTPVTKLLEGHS

ScpA_(S512A,D889A) = molecular target: T2, ScpA_(S512A,D889A) (Streptococcus pyogenes, UniProt P15926 31-1032, S512A | D889A); experiment: as above; details: both partners purified
T2 construct: Made by QuikChange II from pGEX ScpA(31-1032); also called D889A_(S512A); source: details in Supplemental Information SI1 and SI2
T2 sequence (looked up): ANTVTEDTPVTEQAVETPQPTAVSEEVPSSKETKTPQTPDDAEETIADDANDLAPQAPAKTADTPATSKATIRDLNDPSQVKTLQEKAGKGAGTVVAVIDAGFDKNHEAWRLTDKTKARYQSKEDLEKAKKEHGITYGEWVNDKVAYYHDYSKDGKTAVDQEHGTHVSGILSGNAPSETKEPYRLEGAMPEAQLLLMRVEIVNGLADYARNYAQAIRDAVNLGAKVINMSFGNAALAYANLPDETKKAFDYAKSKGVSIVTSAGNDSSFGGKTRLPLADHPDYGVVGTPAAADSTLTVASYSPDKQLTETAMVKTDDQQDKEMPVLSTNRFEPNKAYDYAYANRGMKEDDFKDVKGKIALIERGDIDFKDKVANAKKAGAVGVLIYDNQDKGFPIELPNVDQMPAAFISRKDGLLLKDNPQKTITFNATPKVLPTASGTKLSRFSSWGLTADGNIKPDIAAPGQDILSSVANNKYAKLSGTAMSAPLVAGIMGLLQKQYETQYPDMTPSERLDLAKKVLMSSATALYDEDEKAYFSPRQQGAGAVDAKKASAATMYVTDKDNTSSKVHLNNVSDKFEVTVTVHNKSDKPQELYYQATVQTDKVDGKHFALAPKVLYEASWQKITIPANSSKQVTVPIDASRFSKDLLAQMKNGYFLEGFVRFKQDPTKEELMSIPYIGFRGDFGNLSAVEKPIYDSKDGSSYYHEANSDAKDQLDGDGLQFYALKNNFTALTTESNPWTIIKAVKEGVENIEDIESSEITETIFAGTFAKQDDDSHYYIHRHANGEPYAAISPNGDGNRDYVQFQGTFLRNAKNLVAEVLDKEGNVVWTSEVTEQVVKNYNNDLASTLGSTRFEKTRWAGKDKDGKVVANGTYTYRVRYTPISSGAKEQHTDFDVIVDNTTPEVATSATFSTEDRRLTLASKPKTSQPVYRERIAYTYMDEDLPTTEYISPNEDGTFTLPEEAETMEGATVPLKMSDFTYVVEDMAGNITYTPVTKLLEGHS

B1: Recombinant human C5a (rhC5a) (natural protein, UniProt P01031 678-751, looked up)
chain: TLQKKIEEIAAKYKHSVVKKCCYDGACVNNDETCEQRAARISLGPRCIKAFTECCVVASQLRANISHKDMQLGR
notes: human complement C5a anaphylatoxin, residues 1-74 (core 1-67 and tail 68-74); also called full length rhC5a; substrate; not shown: His6, N-terminal, kept
Kd (ScpA_(S512A,D783A)): 314 nM
koff (ScpA_(S512A,D783A)): 0.0237 s⁻¹
kon (ScpA_(S512A,D783A)): 75400 M⁻¹ s⁻¹
Kd (ScpA_(S512A,D889A)): 27 nM
koff (ScpA_(S512A,D889A)): 0.007 s⁻¹
kon (ScpA_(S512A,D889A)): 263000 M⁻¹ s⁻¹
